Experimental data published in publication doi:10.1101/2023.06.05.543781.
Each block holds one substance with its values, some of them ahead of it.

Columns and labels:
VAMP2 (mouse) = VAMP2 (mouse) (UniProt P63044)
Syntaxin1 (rat) = Syntaxin1 (rat) (UniProt P32851)
[1] = target: Munc13-1 C1-C2B-MUN-C2C domain (rat) (UniProt Q62768)

Sequence of UniProt P32851 (P32851 whole entry, the tested form may be a part): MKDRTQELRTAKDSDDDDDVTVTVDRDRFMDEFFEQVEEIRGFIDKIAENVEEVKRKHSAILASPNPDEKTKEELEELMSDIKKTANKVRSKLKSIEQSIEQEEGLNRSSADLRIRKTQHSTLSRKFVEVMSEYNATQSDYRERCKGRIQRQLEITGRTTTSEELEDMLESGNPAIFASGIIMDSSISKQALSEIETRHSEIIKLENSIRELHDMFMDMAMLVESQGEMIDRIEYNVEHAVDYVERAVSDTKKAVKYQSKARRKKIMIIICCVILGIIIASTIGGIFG
Sequence of UniProt P63044 (P63044 whole entry): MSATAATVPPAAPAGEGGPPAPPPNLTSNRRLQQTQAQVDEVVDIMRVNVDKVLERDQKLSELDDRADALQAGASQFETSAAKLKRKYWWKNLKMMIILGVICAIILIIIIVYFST

Ca^2+ (100 μM)-evoked fusion of the immobile, clamped vesicles, with 500 nM DHG (VAMP2 (mouse)): 20%
Substance: Munc13-1 C1-C2B-MUN-C2C domain D1358K (from UniProt Q62768 529-1407; Q62768 1453-1735) (domain or fragment)

Substance: Munc13-1 C1-C2B-MUN-C2C domain N1128A/F1131A (from UniProt Q62768 529-1407; Q62768 1453-1735) (domain or fragment)
Ca^2+ (100 μM)-evoked fusion of the immobile, clamped vesicles, with 500 nM DHG (Syntaxin1 (rat)): 20%

Ca^2+ (100 μM)-evoked fusion of the immobile, clamped vesicles, with 500 nM DHG [1]: 20%
Substance: SNAP25 linker mutant with residues 113-138 replaced by a GGGGS repeat sequence (from UniProt P60879 1-112; P60879 139-206) (natural protein)
